Assay results: article PMC5072561

Legend:
[1] = molecular target: tunB (tunicate B, CBY30360.1), Oikopleura dioica S100 protein (Oikopleura dioica); assay: AUC; sedimentation velocity; ~50 uM protein; 25 mM TES, 100 mM NaCl, 1 mM TCEP, pH 7.4; interference optics; c(s) by SedFit; monomer to dimer
[2] = molecular target: tunB (tunicate B, CBY30360.1), Oikopleura dioica S100 protein (Oikopleura dioica); assay: native MS; nanoESI time-of-flight MS; 10 or 100 mM ammonium acetate, pH 7.4; protein diluted from 10 uM to 0.01 uM; monomer to dimer
[3] = molecular target: tunA (tunicate A, CBY12809.1), Oikopleura dioica S100 protein (Oikopleura dioica); assay: AUC; sedimentation velocity; ~50 uM protein; 25 mM TES, 100 mM NaCl, 1 mM TCEP, pH 7.4; interference optics; c(s) by SedFit; monomer to dimer
[4] = molecular target: tunA (tunicate A, CBY12809.1), Oikopleura dioica S100 protein (Oikopleura dioica); assay: native MS; nanoESI time-of-flight MS; 10 or 100 mM ammonium acetate, pH 7.4; protein diluted from 10 uM to 0.01 uM; monomer to dimer

stoichiometry N [1] | stoichiometry N [2] | stoichiometry N [3] | stoichiometry N [4] | Substance
2 | 2 | – | – | tunB (tunicate B, CBY30360.1), Oikopleura dioica S100 protein (natural protein)
– | – | 2 | 2 | tunA (tunicate A, CBY12809.1), Oikopleura dioica S100 protein (natural protein)
